In PMC13276077:

Key:
Assay in all cases: EMSA
[1] = molecular target: MeCP2 full-length, e2 isoform (Homo sapiens) (UniProt P51608); conditions: EMSA: 20 mM HEPES pH 7.5, 75 mM NaCl, 125 mM KCl, 50 uM EDTA, 2.5 mM beta-mercaptoethanol, 5% glycerol, BSA, 1.58 uM 47 bp competitor DNA (absent in free DNA …)
[2] = molecular target: MeCP2 R133G R133G (Homo sapiens) (UniProt P51608); conditions: apparent, competitor DNA, EMSA: 20 mM HEPES pH 7.5, 75 mM NaCl, 125 mM KCl, 50 uM EDTA, 2.5 mM beta-mercaptoethanol, 5% glycerol, BSA, 1.58 uM 47 bp competitor DNA (absent in free DNA …)
MeCP2 MBD (Homo sapiens) = MeCP2 MBD (Homo sapiens) (UniProt P51608); conditions: EMSA: 20 mM HEPES pH 7.5, 75 mM NaCl, 125 mM KCl, 50 uM EDTA, 2.5 mM beta-mercaptoethanol, 5% glycerol, BSA, 1.58 uM 47 bp competitor DNA (absent in free DNA …)
[3] = apparent, no competitor DNA, meCpG at -1

Sequence: CGGTACCTCGCGAATGCATCTAATGGAACACATTGCACAGGATGTATATATCTGACACGTGCCTGGAGACTAGGGAGTAATCCCCTTGGCGGTTAAAACGCGGGGGACAGAACGCCGGTGCGTTTAAGCGGTGCTAGAGCTGTCTACGACCAATTGAGCGGCCTGCGCACAGGGATTCTCCAGGGCGGCCGCGTATTGGATCCCGAGCC (double strand) [37-N601(mod)-27 nucleosome -6 meCpG]
- Kd ([1]; meCpG at -6): 57.4 nM

Sequence: ATGGAACACATTGCACAGGATGTATATATCTGACACGTGCCTGGAGACTAGGGAGTAATCCCCTTGGCGGTTAAAACGCGGGGGACAGCGCGTACGTGCGTTTAAGCGGTGCTAGAGCTGTCTACGACCAATTGAGCGGCCTCGGCACCGGGATTCTCCAGGGCGGCCGCGTATT (double strand) [15-N601-15 nucleosome -1 meCpG]
- Kd ([1]; meCpG at -1): 130 nM
- Kd ([2]; meCpG at -1): 522 nM
- Kd (MeCP2 MBD (Homo sapiens); meCpG at -1): 812 nM

Sequence: ATGGAACACATTGCACAGGATGTATATATCTGACACGTGCCTGGAGACTAGGGAGTAATCCCCTTGGCGGTTAAAACGCGGGGGACAGCGCGTACGTGCGTTTAAGCGGTGCTAGAGCTGTCTACGACCAATTGAGCGGCCTCGGCACCGGGATTCTCCAGGGCGGCCGCGTATT (double strand) [15-N601-15 nucleosome 81 meCpA]
- Kd ([1]; apparent, H1.0 1-97 prebound, competitor DNA, linker meCpA 81 bp from dyad): 382 nM
- Kd ([1]; apparent, H1.0 25-97 prebound, competitor DNA, linker meCpA 81 bp from dyad): 295 nM

Sequence: GAGCCACAAAACCGGCGACGCTCACGGGTGCCCAGTTCGCGCGCCCACCTACCGTGTGAAGTCGTCACTCGGGCTTCTAAGTACGCTTAGCGCACGGTAGAGCGCAATCCAAGGCTAACCACCGTGCATCGATGTTGAAAGAGGCCCTCCGTCCTTATTACTTCAAGTCCCTGGGGTACCCGTTTCACTGCCA (double strand) [16-N603-30 +91 CG nucleosome 91 meCpG]
- Kd ([1]; meCpG at 91): 71.3 nM

Sequence: CGGTACCTCGCGAATGCATCTAATGGAACACATTGCACAGGATGTATCCGGCTGACACGTGCCTGGAGACTAGGGAGTAATCCCCTTGGCGGTTAAAACGCGGGGGACAGAGCGTACGTGCGTTTAAGCGGTGCTAGAGCTGTCGCGCCCCAATTGAGCGGCCTCGGCACAGGGATTCTCCAGGGCGGCCGCGTATTGGATCCCGAGCC (double strand) [37-N601(mod2)-27 nucleosome -36 meCpG]
- Kd ([1]; meCpG at -36): 70.8 nM

Sequence: GAGCCACAAAATCACCGACGCCCGGGGGTGCCCAGTTCGCGCGCCCACCTACCGTGTGAAGTCGTCACTCGGGCTTCTAAGTACGCTTAGCGCACGGTAGAGCGCAATCCAAGGCTAACCACCGTGCATCGATGTTGAAAGAGGCCCTCCGTCCTTATTACTTCAAGTCCCTGGGGTACCCGTTTCACTGCCA (double strand) [16-N603-30 +81 CG nucleosome 81 meCpG]
- Kd ([1]; meCpG at 81): 65.5 nM

Sequence: CGGTACCTCGCGAATGCATCTAATGGAACACATTGCACAGGATGTATATATCTGACACGTGCCTGGAGACTAGGGAGTAATCCCCTTGGCGGTTAAAACGCGGGGGACAGAACGCCGGTGCGTTTAAGCGGTGCTAGAGCTGTCTACGACCAATTGAGCGGCCTGCGCACAGGGATTCTCCAGGGCGGCCGCGTATTGGATCCCGAGCC (double strand) [37-N601(mod)-27 nucleosome -56 meCpG]
- Kd ([1]; meCpG at -56): 55.8 nM

Sequence: GAGCCACAAAATCACCGACGCTCACGGGTGCCCAGTTCGCGCGCCCACCTACCGTGTGAAGTCGTCACTCGGGCTTCTAAGTACGCTTAGCGCACGGTAGAGCGCAATCCAAGGCTAACCACCGTGCATCGATGTTGAAAGAGGCCCTCCGTCCTTATTACTTCAAGTCCCTGGGGTACCCGTTTCACTGCCA (double strand) [16-N603-30 nucleosome 81 meCpA]
- Kd ([1]; asymmetric meCpA at 81): 65.3 nM
- Kd (MeCP2 MBD (Homo sapiens); asymmetric meCpA at 81): 268 nM

Sequence: CAGGATGTATATATCTGACACGTGCCTGGAGACTAGGGAGTAATCCCCTTGGCGGTTAAAACGCGGGGGACAGCGCGTACGTGCGTTTAAGCGGTGCTAGAGCTGTCTACGACCAATTGAGCGGCCTCGGCACCGGGATTCTCCA (double strand) [N601 nucleosome core particle -1 meCpG]
- Kd [1, 3]: 44.2 nM
- Kd (MeCP2 MBD (Homo sapiens); [3]): 50.7 nM

Sequence: CGGTACCTCGCGAATGCATCTAATGGAACACATTGCACAGGATGTATCCGGCTGACACGTGCCTGGAGACTAGGGAGTAATCCCCTTGGCGGTTAAAACGCGGGGGACAGAGCGTACGTGCGTTTAAGCGGTGCTAGAGCTGTCGCGCCCCAATTGAGCGGCCTCGGCACAGGGATTCTCCAGGGCGGCCGCGTATTGGATCCCGAGCC (double strand) [37-N601(mod2)-27 nucleosome unmethylated]
- Kd [1]: 91.9 nM

Sequence: CGGTACCTCGCGAATGCATCTAATGGAACACATTGCACAGGATGTATCCGGCTGACACGTGCCTGGAGACTAGGGAGTAATCCCCTTGGCGGTTAAAACGCGGGGGACAGAGCGTACGTGCGTTTAAGCGGTGCTAGAGCTGTCGCGCCCCAATTGAGCGGCCTCGGCACAGGGATTCTCCAGGGCGGCCGCGTATTGGATCCCGAGCC (double strand) [37-N601(mod2)-27 nucleosome +61 meCpG]
- Kd ([1]; meCpG at +61): 62 nM

Sequence: ATGGAACACATTGCACAGGATGTATATATCTGACACGTGCCTGGAGACTAGGGAGTAATCCCCTTGGCGGTTAAAACGCGGGGGACAGCGCGTACGTGCGTTTAAGCGGTGCTAGAGCTGTCTACGACCAATTGAGCGGCCTCGGCACCGGGATTCTCCAGGGCGGCCGCGTATT (double strand) [15-N601-15 nucleosome -61 meCpG]
- Kd ([1]; meCpG at -61 (GGCACCGGGATT)): 137 nM
- Kd ([2]; meCpG at -61 (GGCACCGGGATT)): 534 nM
- Kd (MeCP2 MBD (Homo sapiens); meCpG at -61 (GGCACCGGGATT)): 809 nM

Sequence: CGGTACCTCGCGAATGCATCTAATGGAACACATTGCACAGGATGTATATATCTGACACGTGCCTGGAGACTAGGGAGTAATCCCCTTGGCGGTTAAAACGCGGGGGACAGAACGCCGGTGCGTTTAAGCGGTGCTAGAGCTGTCTACGACCAATTGAGCGGCCTGCGCACAGGGATTCTCCAGGGCGGCCGCGTATTGGATCCCGAGCC (double strand) [37-N601(mod)-27 nucleosome unmethylated]
- Kd [1]: 82.1 nM
